Assays:
[1] = target: Recombinant Cas6-1 (Sso1437) (S. solfataricus) (UniProt Q97Y96); assay: SEC; recombinant Cas6-1 alone on Superdex 200 in GF buffer (20 mM sodium phosphate pH 7.5, 250 mM NaCl, 5 mM EDTA, 0.5 mM DTT)
[2] = target: the molecule itself; assay: SEC; S. solfataricus cell lysate on Superdex 200 in GF buffer (20 mM sodium phosphate pH 7.5, 250 mM NaCl, 5 mM EDTA, 0.5 mM DTT); 2 ml fractions analysed by western blotting
Cas6-1 [3] = target: T1, Cas6-1 (Saccharolobus/Sulfolobus solfataricus P2, UniProt Q97Y96 1-287); assay: EMSA; 20 C; apparent Kd, intermediate shifted species; EMSA: NR buffer (composition not in material) with 2 uM BSA, 0.5 nM RNA (legend: 1 nM), 15 min at 20 C, 6% native PAGE in 1x TBE; fluorescence quenching at 25 C, buffer not in material; details: protein: recombinant; chain copies: 2; label: 5'-32P
T1 sequence: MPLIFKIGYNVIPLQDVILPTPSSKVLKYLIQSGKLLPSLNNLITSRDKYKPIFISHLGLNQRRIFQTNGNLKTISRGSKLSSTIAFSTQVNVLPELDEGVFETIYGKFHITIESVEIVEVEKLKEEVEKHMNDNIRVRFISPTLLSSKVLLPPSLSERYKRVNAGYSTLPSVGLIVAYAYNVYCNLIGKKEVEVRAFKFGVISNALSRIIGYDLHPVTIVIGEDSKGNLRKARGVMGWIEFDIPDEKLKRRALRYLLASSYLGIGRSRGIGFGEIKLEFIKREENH

Cas6-1 [4] = target: T1, Cas6-1; assay: EMSA; 20 C; apparent Kd, no intermediate bands; EMSA: NR buffer (composition not in material) with 2 uM BSA, 0.5 nM RNA (legend: 1 nM), 15 min at 20 C, 6% native PAGE in 1x TBE; fluorescence quenching at 25 C, buffer not in material; details: protein: recombinant; chain copies: 2; label: 5'-32P
Cas6-1 [5] = target: T1, Cas6-1; assay: fluorescence quenching; 25 C; apparent Kd, fit with variable Hill coefficient; partial cleavage not ruled out; EMSA: NR buffer (composition not in material) with 2 uM BSA, 0.5 nM RNA (legend: 1 nM), 15 min at 20 C, 6% native PAGE in 1x TBE; fluorescence quenching at 25 C, buffer not in material; details: protein: recombinant; chain copies: 2; label: 5'-FAM
Cas6-1 [6] = target: T1, Cas6-1; assay: fluorescence quenching; 25 C; apparent Kd, fit with variable Hill coefficient; EMSA: NR buffer (composition not in material) with 2 uM BSA, 0.5 nM RNA (legend: 1 nM), 15 min at 20 C, 6% native PAGE in 1x TBE; fluorescence quenching at 25 C, buffer not in material; details: protein: recombinant; chain copies: 2; label: 5'-FAM

Molecule: Recombinant Cas6-1 (Sso1437) (from UniProt Q97Y96 1-287) (enzyme)
- stoichiometry N [1]: 2

B1: Cmr7 (Sso1986) subunit of CMR, free protein in the lysate (natural protein, UniProt Q97WX5 1-197, looked up)
chain: MTSGAGWEEQVFLPITNSISSEDNNQIKIGSSVSIEYNQNGQHVSQIDDKGLHNILVLTGYAIDESTGELVPTFDPCDYVKGILISGKILKGNHFKIIGIPSNKLYIIRKKDVHGNITFSLPIKNFNTGTYQVDLRDKVTSFVSLDRDVAKTIVDNVLAKIYAKIYNSLNKEQKDKLYRDVEEIFNYYSIKSLKSNP
notes: Cmr7 (Sso1986), subunit of the CMR complex of Sulfolobus solfataricus; also called dimeric Cmr7 protein; source: endogenous, S. solfataricus lysate
- stoichiometry N [2]: 2

Molecule: GAUAAUCUCUUAUAGAAUUGAAAG (ssRNA) [CD-repeat RNA (32P)]
- Kd (Cas6-1 [3]): ~16 nM

Molecule: GAUUAAUCCCAAAAGGAAUUGAAAG (ssRNA) [AB-repeat RNA (32P)]
- Kd (Cas6-1 [4]): 350 nM

Molecule: UGAUAAUCUCUUAUAGAAUUGAAAG (ssRNA) [FAM-CD repeat RNA]
- Kd (Cas6-1 [5]): ~14 nM

Molecule: UGAUAAUCUCUUAUAGA (ssRNA, 3'-phosphate) [FAM-CDproduct RNA]
- Kd (Cas6-1 [6]): ~14 nM

Reference: PMC4041471, “Cas6 specificity and CRISPR RNA loading in a complex CRISPR-Cas system” (Nucleic Acids Research, 2014)
